Assay results: the supplement of paper PMC9170038

Assays:
[1] = test system: MS2 coat protein; test: apparent KD of MS2 coat protein, switch ON state; designed switch direction (-1 OFF switch, 1 ON switch): -1; higher = weaker reporter binding; details: FMN input: 0 or 200 uM; Eterna round: R93 (includes R88 designs)
Procedure, shortened: (§1)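 The buffer was 100 mM Tris-HCl pH 7.5 with 80 mM KCl and 4 mM MgCl2, used without or with constant ligand. In it, RNA switches transcribed on-chip from Illumina sequencing clusters were titrated with SNAP-549-labelled MS2 coat protein in twofold steps from 0.7 or 1.5 nM to 3 µM. Apparent KD for each design is the median of its normalised cluster binding-curve fits.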

[2] = test system: MS2 coat protein; test: apparent KD of MS2 coat protein, switch OFF state (with FMN for OFF switches, without FMN for ON switches); designed switch direction (-1 OFF switch, 1 ON switch): -1; higher = weaker reporter binding; details: FMN input: 0 or 200 uM; Eterna round: R93 (includes R88 designs)
Procedure, shortened: as §1

## CUCAAGUGAGGAUAUAAAAGAAAAGAAGAGAAAGAAAAGAAUUAGAAGGCACAUGAGGAUCACCCAUGUAAGAA [EteRNA is fun!]
[1]
  apparent KD of MS2 coat protein: 39.4 nM
[2]
  apparent KD of MS2 coat protein: 25.5 nM

## AGAUCAUCAGGAUAUACAUAGGUGAAAAAAGUAAAUCCACUACAUGAGGAUCACCCAUGUAGAAGGGAUGAUCA [Ex2 Design 176: Random 4]
[1]
  apparent KD of MS2 coat protein: 39.1 nM
[2]
  apparent KD of MS2 coat protein: 30.3 nM

## AAUGGUGCAGGAUAUACAUGAGGAUCACCCAUGUACAUCAGACAUAUGGUCGAAGCAUGUAGAAGGGCACCAAA [Ex 3May 56]
[1]
  apparent KD of MS2 coat protein: 145 nM
[2]
  apparent KD of MS2 coat protein: 183 nM

## AAACCACAUGAGGAUCACCCAUGUAAGGAUAUGAACGAAAAUAAAUAAAAAUAAAAGUUCAGAAGGUACAAAAA [66%, Wbt, 22]
[1]
  apparent KD of MS2 coat protein: 26.3 nM
[2]
  apparent KD of MS2 coat protein: 24.3 nM

## AAAAAACAUGAGGAUCACCCAUGUCAGGAUAUCCGGUUCUUAAAAAAAAAGAGGCGUUGGAGAAGGGACAUUCC [Chica Displaced 12 - Jieux - Exclusion 1]
[1]
  apparent KD of MS2 coat protein: 26.7 nM
[2]
  apparent KD of MS2 coat protein: 41.7 nM

## AGAAAGCGAGGAUAUGCACGGGAAGAAAGAAGAGAGAAAAAACAUGAGGAUCACCCAUGUAGAAGGUGUAUAAA [JR_Exc002_Sub1713]
[1]
  apparent KD of MS2 coat protein: 38.4 nM
[2]
  apparent KD of MS2 coat protein: 25.8 nM

## CAGAGACAUGAGGAUCACCCAUGUUAGGAUAUGCGUGAAAGAAAAAAAAAGUUAAAAAGCAGAAGGAACAGAGG [JR_Exc001_Sub310]
[1]
  apparent KD of MS2 coat protein: 152 nM
[2]
  apparent KD of MS2 coat protein: 33.6 nM

## AUGUAGGGAGGAUAUACAUAGAUACAGAUUCGUGUAGAACUACAUGAGGAUCACCCAUGUAGAAGGCCCUAAAA [Mat - Same state - Mayanna Mod - D124]
[1]
  apparent KD of MS2 coat protein: 20.1 nM
[2]
  apparent KD of MS2 coat protein: 43.1 nM

## AAAAAACAUGAGGAUCACCCAUGUCAGGAUAUGCGAAGCAAAAAAAAAAAAAAGCGAAGUAGAAGGGACUAAAA [Exclusion1 Malc#6]
[1]
  apparent KD of MS2 coat protein: 24.4 nM
[2]
  apparent KD of MS2 coat protein: 40.1 nM

## AAAAAGGCAGGAUAUACAUGAGGAUCACCCAUGUAAAAAAAAACAAGAGAAAAAAAAUGUAGAAGGGCCAAAAA [Ex3 Malc#3]
[1]
  apparent KD of MS2 coat protein: 26.8 nM
[2]
  apparent KD of MS2 coat protein: 26 nM

## AACAGUACAGGAUAUACAUGAGGAUCACCCAUGUGAGAAUUAAGUGGAGUACCACAAAGUAGAAGGGUACUGGA [Mat - Exclusion 3 - JL mod - D4]
[1]
  apparent KD of MS2 coat protein: 28.9 nM
[2]
  apparent KD of MS2 coat protein: 202 nM

## AAAAAACAUGAGGAUCACCCAUGUAAGGAUAUGUAAAAUAAAAGAAAAAUAAAGAAAAGCAGAAGGUACAUGAA [JL wbt mod 14]
[1]
  apparent KD of MS2 coat protein: 37 nM
[2]
  apparent KD of MS2 coat protein: 60.5 nM

## AAAGAUACAGGAUAUACAUGAGGAUCACCCAUGUUAGACCAAAAAUGGGAAAAAGAAAGUAGAAGGGUAUAAAA [Ex 3 May 35]
[1]
  apparent KD of MS2 coat protein: 26 nM
[2]
  apparent KD of MS2 coat protein: 54.5 nM

## AAAGGAGCAGGAUAUACAUGAGGAUCACCCAUGUAAAAAACAUAAUAAAAGAACUUAUGUAGAAGGGCUCCAAA [69%, Moding Meechl, 10]
[1]
  apparent KD of MS2 coat protein: 48.2 nM
[2]
  apparent KD of MS2 coat protein: 228 nM

## AUAGGUCAAGGAUAUACAUGAGGAUCACCCAUGUAAAUAACUCCAUAAAACUCCACAAGUAGAAGGUGAAAUAA [JR_Exc003_Sub202]
[1]
  apparent KD of MS2 coat protein: 17.9 nM
[2]
  apparent KD of MS2 coat protein: 15.8 nM

## AAAAAGCGAGGAUAUACUAAAAAACCUCAAAAAAAAAAAAAACAUGAGGAUCACCCAUGUAGAAGGCGCAAAAA [JR_Exc002_Sub001]
[1]
  apparent KD of MS2 coat protein: 86.1 nM
[2]
  apparent KD of MS2 coat protein: 113 nM

## AAAAGGGCAGGAUAUGCAUGUUGGCAAAAUUCUCAUCAAACACAUGAGGAUCACCCAUGUAGAAGGGCCAACGG [Inonenonat]
[1]
  apparent KD of MS2 coat protein: 110 nM
[2]
  apparent KD of MS2 coat protein: 161 nM

## AAAACGAUAGGAUAUACAUGAGGAUCACCCAUGUUAAAAUGUAGAAGGCUGAAAAAAAGUAGAAGGAUCAAAAA [EXC - 3]
[1]
  apparent KD of MS2 coat protein: 29.5 nM
[2]
  apparent KD of MS2 coat protein: 34.4 nM

## CUCAAGUAAGGAUAUGGAAGAAAAGAAGAGAAAGAAAAGAACCAGAAGGUACAUGAGGAUCACCCAUGUAAGAA [EteRNA is fun!]
[1]
  apparent KD of MS2 coat protein: 37.2 nM
[2]
  apparent KD of MS2 coat protein: 24.6 nM

## AAGAACUCAGGAUAUACAUGAGGAUCACCCAUGUAAAAGAAAGAAAGGGAAAAGAAAAGUAGAAGGGAGAAGAA [Hedjkheperre-setpenre Nesbanebdjed]
[1]
  apparent KD of MS2 coat protein: 28.7 nM
[2]
  apparent KD of MS2 coat protein: 34.3 nM

## AAAAAACAUGAGGAUCACCCAUGUCAGGAUAUGCUCAGCAAUAUUCCAAUAAAGAACGGUAGAAGGGACAGGAA [Bilbo Confounded 24 - Jieux - Exclusion 1]
[1]
  apparent KD of MS2 coat protein: 24.9 nM
[2]
  apparent KD of MS2 coat protein: 26.6 nM

## AAAAAGCGAGGAUAUGCAAGAAAAAAAAAAAAAAAAAAGGGACAUGAGGAUCACCCAUGUAGAAGGCGCAAAAA [Diamond 65]
[1]
  apparent KD of MS2 coat protein: 54.9 nM
[2]
  apparent KD of MS2 coat protein: 38 nM

## AGCUAGUCAGGAUAUACAAAGAUGUCGAAAGACGUCAAGGGACAUGAGGAUCACCCAUGUAGAAGGGACUAGCA [Mod of Janderson's WEB Mod v.3]
[1]
  apparent KD of MS2 coat protein: 56.2 nM
[2]
  apparent KD of MS2 coat protein: 197 nM

## CAGUACUGAGGAUAUACAUGAGGAUCACCCAUGUGAAAAAGCUACGAAAGUAGCACAUGUAGAAGGCAGUACUG [Ex3: 807]
[1]
  apparent KD of MS2 coat protein: 319 nM
[2]
  apparent KD of MS2 coat protein: 281 nM

## AAUUAGGUAGGAUAUACAUGAGGAUCACCCAUGUAGGAAAAAAGCUACGAAAAAGAAUGUAGAAGGACCUAAAA [Ex 3 Sunny]
[1]
  apparent KD of MS2 coat protein: 13.2 nM
[2]
  apparent KD of MS2 coat protein: 18.7 nM

## AAGAAACAUGAGGAUCACCCAUGUAAGGAUAUCUAAAAGAAAAGAAAAGAAAGAAGAAAGAGAAGGUACAAAGG [Nebhetepre Mentuhotep II]
[1]
  apparent KD of MS2 coat protein: 87.3 nM
[2]
  apparent KD of MS2 coat protein: 81.3 nM

## AACAAGACAGGAUAUACAUGAGGAUCACCCAUGUCACAACAAAGCAGCGCAACACAAAGUAGAAGGGUCAUGAA [Ruby 12]
[1]
  apparent KD of MS2 coat protein: 45.1 nM
[2]
  apparent KD of MS2 coat protein: 46.9 nM

## AGGAAACAUGAGGAUCACCCAUGUUAGGAUAUGAACGAAAAUAAAUAAAAAUAAAAGUUCAGAAGGGACAAAAA [66%, Wbt, 19]
[1]
  apparent KD of MS2 coat protein: 38.4 nM
[2]
  apparent KD of MS2 coat protein: 39.6 nM

## CUUAUGUGAGGAUAUCAGUAGUAAAAAAAAAAAAUUACUACUGAGAAGGCACAUGAGGAUCACCCAUGUGCAUU [EX4 322: Super Stable 22]
[1]
  apparent KD of MS2 coat protein: 30.3 nM
[2]
  apparent KD of MS2 coat protein: 38.8 nM

## GAAAAGGCAGGAUAUGCAGGAUAUAGAAGGAGGAUAUAGAGACAUGAGGAUCACCCAUGUAGAAGGGCCAAAAG [salish99-ex2-11]
[1]
  apparent KD of MS2 coat protein: 42.6 nM
[2]
  apparent KD of MS2 coat protein: 32.3 nM

## CUCAAGUGAGGAUAUCAGUAGUAAAAAAAUAAAAUUACUACUGAGAAGGCACAUGAGGAUCACCCAUGUGCAAA [EX4 336: Super Stable 36]
[1]
  apparent KD of MS2 coat protein: 19.6 nM
[2]
  apparent KD of MS2 coat protein: 17 nM

## AAAAAACAUGAGGAUCACCCAUGUGAGGAUAUGCGAAAAUAAAAUAAAAUAAUAAAAAGCAGAAGGCACAAAAA [58%, Sh'dynasty, 1]
[1]
  apparent KD of MS2 coat protein: 67.7 nM
[2]
  apparent KD of MS2 coat protein: 89.3 nM

## AAAAGACAUGAGGAUCACCCAUGUGAGGAUAUCGGAAAAGGAAAAAUAAAAAAGAAGACGAGAAGGCACACCAA [Mat - Exclusion 1 - Eli mod - D75]
[1]
  apparent KD of MS2 coat protein: 43.9 nM
[2]
  apparent KD of MS2 coat protein: 48.2 nM

## AAGAACGCAGGAUAUAUUAAGGGACAAAGAAGGAAGAAUAAACAUGAGGAUCACCCAUGUAGAAGGGCGAAGAA [JR_Exclusion2_Sub4]
[1]
  apparent KD of MS2 coat protein: 49.4 nM
[2]
  apparent KD of MS2 coat protein: 43.5 nM

## AAAAAACAUGAGGAUCACCCAUGUCAGGAUAUCGUAAAAAAAAAAAAAAAAAAAAAUGCGAGAAGGGACUGGAA [exclusion1-cac2]
[1]
  apparent KD of MS2 coat protein: 86.9 nM
[2]
  apparent KD of MS2 coat protein: 94.5 nM

## CUGGAGUCAGGAUAUACGAACAUGUCGCCAGAUGUCAAGGUACAUGAGGAUCACCCAUGUAGAAGGGAGGAGAA [salish99-Ex2-33]
[1]
  apparent KD of MS2 coat protein: 95.2 nM
[2]
  apparent KD of MS2 coat protein: 84.8 nM

## AACUAGUCAGGAUAUGCGAACAGAUAAUAAGCUACACAAAAGCAGAAGGGACAUGAGGAUCACCCAUGUAAAUA [JR_Exc004_Sub502]
[1]
  apparent KD of MS2 coat protein: 39.3 nM
[2]
  apparent KD of MS2 coat protein: 33 nM

## UACAUACAUGAGGAUCACCCAUGUCAGGAUAUGUGCUCAGUGAAAAACAAAGAAACAAGCAGAAGGGACACUAA [JR_Exc001_Sub203]
[1]
  apparent KD of MS2 coat protein: 41.8 nM
[2]
  apparent KD of MS2 coat protein: 37.5 nM

## AAAAAGAGAGGAUAUACAUGAGGAUCACCCAUGUGAAAAAAAAAAAAAGGGAAAAGAUGUAGAAGGCUCAAAAA [65%, Moding Exclusion3-cac2, 16]
[1]
  apparent KD of MS2 coat protein: 30.4 nM
[2]
  apparent KD of MS2 coat protein: 32.1 nM

## AAAAAACAUGAGGAUCACCCAUGUGAGGAUAUGAAAAUACUAAGACAACUGUAAUCAAUCAGAAGGCACAACAA [JR_Exc--1_Sub1208]
[1]
  apparent KD of MS2 coat protein: 18.8 nM
[2]
  apparent KD of MS2 coat protein: 19.6 nM
